Measured values reported in publication PMC5465072.

Assays:
Details in all cases: modification not given
[1] = target: T1, Protective antigen (PA) 488-735 (Bacillus anthracis), P13423; experiment: ELISA
[2] = target: T1, Protective antigen (PA) 488-735 …
[3] = target: T2, CMG2 38-218 (Homo sapiens), P58335; experiment: sandwich ELISA (competition with His6-PA 596-735)
T2 chain: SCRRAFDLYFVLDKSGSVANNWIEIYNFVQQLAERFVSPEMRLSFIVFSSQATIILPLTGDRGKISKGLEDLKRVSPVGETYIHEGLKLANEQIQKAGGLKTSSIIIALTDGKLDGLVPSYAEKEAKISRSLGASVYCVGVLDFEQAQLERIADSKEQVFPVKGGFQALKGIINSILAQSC

[4] = target: T2, CMG2 38-218 (Homo sapiens), P58335; experiment: microscale thermophoresis
[5] = target: T2, CMG2 38-218 (Homo sapiens), P58335; experiment: sandwich ELISA (competition with His6-PA 488-735)

| Binder | IC50 [1] [µM] | Kd [2] [µM] | IC50 [3] [µM] | Kd [4] [µM] | IC50 [5] [µM] |
| --- | --- | --- | --- | --- | --- |
| CMNHFPA | 49.8 | 38.2 | – | – | – |
| HPCNAMF [HPCNAMF (scrambled CMNHFPA)] | 153 | – | – | – | – |
| CLRFT | – | – | 71.3 | 30.2 | 77.1 |
